Measurements published in FireProtDB (doi:10.1016/j.jmb.2005.09.091).

Details: Kitasatospora aureofaciens, Thermal, CD, whole UniProt chain shown

B1: Guanyl-specific ribonuclease Sa wild type, P05798 (protein)
chain: DVSGTVCLSALPPEATDTLNLIASDGPFPYSQDGVVFQNRESVLPTQSYGYYHEYTVITPGARTRGTRRIITGEATQEDYYTGDHYATFSLIDQTC
pH 3, Glycine 30 mM
  Tm: 39.9 °C
  unfolding enthalpy (van 't Hoff): 81 kcal/mol
pH 7, Mops 30 mM
  Tm: 47.8 °C
  unfolding enthalpy (van 't Hoff): 91 kcal/mol
pH 8.5, Mops 30 mM
  Tm: 38.7 °C
  unfolding enthalpy (van 't Hoff): 84 kcal/mol
